Experimental findings from patent EP4778939A1 (Jiangsu Hengrui Pharmaceuticals Co., Ltd., dated 2026) are described below.

In this assay the target is human GPRC5D (human, UniProt Q9NZD1 1-345). Put plainly: cell-based or functional assay.
Chain of human GPRC5D (Q9NZD1 whole entry): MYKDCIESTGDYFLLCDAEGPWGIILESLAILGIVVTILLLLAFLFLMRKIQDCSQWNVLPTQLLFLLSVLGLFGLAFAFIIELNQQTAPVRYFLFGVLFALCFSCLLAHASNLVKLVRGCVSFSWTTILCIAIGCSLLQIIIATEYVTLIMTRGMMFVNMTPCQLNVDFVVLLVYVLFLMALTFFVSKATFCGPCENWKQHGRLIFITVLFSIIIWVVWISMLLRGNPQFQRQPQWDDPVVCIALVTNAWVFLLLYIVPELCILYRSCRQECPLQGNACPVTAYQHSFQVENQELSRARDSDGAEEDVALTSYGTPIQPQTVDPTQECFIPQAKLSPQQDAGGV

B1: F4-0G4S-1 (bispecific antibody)
heavy 1: not shown
light 1: not shown
heavy 2: EVQLVQSGAEVKKPGASVKVSCKVSGYTFTDYPIHWMRQAPGQGLEWMGYVFPRDGSTKYNEKFRVRVTWTADKSTSTVYMELSSLRSEDTAVYYCSRELTAYWGQGTTVTVSSASTKGPSVFPLAPSSKSTSGGTAALGCLVKDYFPEPVTVSWNSGALTSGVHTFPAVLQSSGLYSLSSVVTVPSSSLGTQTYICNVNHKPSNTKVDKKVEPKSCDKTHTCPPCPAPEAAGGPSVFLFPPKPKDTLMISRTPEVTCVVVDVSHEDPEVKFNWYVDGVEVHNAKTKPREEQYNSTYRVVSVLTVLHQDWLNGKEYKCKVSNKALPAPIEKTISKAKGQPREPQVCTLPPSRDELTKNQVSLSCAVKGFYPSDIAVEWESNGQPENNYKTTPPVLDSDGSFFLVSKLTVDKSRWQQGNVFSCSVMHEALHNHYTQKSLSLSPGK
light 2: DVVLTQSPLSLPVTLGQPASISCKSSQSLLHSSGKTYLNWLLQRPGQSPRRLIYLVSKLDSGVPDRFSGSGSGTDFTLKISRVEAEDVGVYYCAQGTHFPRTFGGGTKVEIKRTVAAPSVFIFPPSDEQLKSGTASVVCLLNNFYPREAKVQWKVDNALQSGNSQESVTEQDSKDSTYSLSSTLTLSKADYEKHKVYACEVTHQGLSSPVTKSFNRGEC
Regarding B1, the “EC50 ratio (relative to JNJ-64407564), cytotoxic activity against NCI-H929” value was determined as 0.09 ratio.

B2: F2-0G4S-1 (bispecific antibody)
heavy 1: not shown
light 1: DVVMTQTPLSLSVTPGQPASISCRSSQSLVHSQGNTYLYWYLQKPGQSPKLLIYKVSNRFSGVPDRFSGSGSGTDFTLKISRVEAEDVGVYYCSQSTHVPPLTFGQGTKLEIKRTVAAPSVFIFPPSDEQLKSGTASVVCLLNNFYPREAKVQWKVDNALQSGNSQESVTEQDSKDSTYSLSSTLTLSKADYEKHKVYACEVTHQGLSSPVTKSFNRGEC
heavy 2: not shown
light 2: not shown
Regarding B2, the “EC50 ratio (relative to JNJ-64407564), cytotoxic activity against NCI-H929” value was found to be 0.57 ratio.
